Laboratory results: patent publication EP4671282A1 (Jiangsu Hengrui Pharmaceuticals Co., Ltd., dated 2025)
Where two headings read alike, the source gives them in different places.

Legend:
[1] = biological target: T1, human IL-23 protein (Sino Biological, CT048-H08H) (human, UniProt Q9NPF7 20-189; P29460 23-328); test: cell-based or functional assay
T1 sequence (looked up) 1: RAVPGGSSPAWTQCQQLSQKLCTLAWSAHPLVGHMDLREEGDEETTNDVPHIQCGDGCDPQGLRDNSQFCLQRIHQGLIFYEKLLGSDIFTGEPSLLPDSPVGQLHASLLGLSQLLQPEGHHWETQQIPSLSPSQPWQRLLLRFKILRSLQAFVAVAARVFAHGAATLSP
T1 sequence (looked up) 2: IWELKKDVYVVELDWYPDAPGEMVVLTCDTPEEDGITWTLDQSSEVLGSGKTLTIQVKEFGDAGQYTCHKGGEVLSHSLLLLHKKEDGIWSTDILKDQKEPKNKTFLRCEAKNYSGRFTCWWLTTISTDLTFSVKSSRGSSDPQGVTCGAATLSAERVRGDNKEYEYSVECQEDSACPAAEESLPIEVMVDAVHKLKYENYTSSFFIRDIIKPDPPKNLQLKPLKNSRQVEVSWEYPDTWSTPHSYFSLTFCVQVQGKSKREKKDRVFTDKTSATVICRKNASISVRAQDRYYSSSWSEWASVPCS

[2] = biological target: T2, IL-23 (R&D Systems, 1290-IL-010) (UniProt Q9NPF7 20-189; P29460 23-328); test: cell-based or functional assay
T2 sequence (looked up) 1: T1 sequence (looked up) 1
T2 sequence (looked up) 2: T1 sequence (looked up) 2

[3] = biological target: T1, human IL-23 protein (Sino Biological, …); test: ELISA, test sample coated, His-tagged IL-23 in solution
[4] = biological target: T1, human IL-23 protein (Sino Biological, …); test: SPR (Biacore 8K), antibody captured on Protein A chip, IL-23 as analyte
[5] = biological target: T1, human IL-23 protein (Sino Biological, …); test: competition ELISA, IL-23R coated, biotinylated IL-23 preincubated with antibody
[6] = biological target: T3, IL-36R on human skin squamous cell line A431 (human, UniProt Q9HB29 20-575); test: cell-based or functional assay
T3 sequence (looked up): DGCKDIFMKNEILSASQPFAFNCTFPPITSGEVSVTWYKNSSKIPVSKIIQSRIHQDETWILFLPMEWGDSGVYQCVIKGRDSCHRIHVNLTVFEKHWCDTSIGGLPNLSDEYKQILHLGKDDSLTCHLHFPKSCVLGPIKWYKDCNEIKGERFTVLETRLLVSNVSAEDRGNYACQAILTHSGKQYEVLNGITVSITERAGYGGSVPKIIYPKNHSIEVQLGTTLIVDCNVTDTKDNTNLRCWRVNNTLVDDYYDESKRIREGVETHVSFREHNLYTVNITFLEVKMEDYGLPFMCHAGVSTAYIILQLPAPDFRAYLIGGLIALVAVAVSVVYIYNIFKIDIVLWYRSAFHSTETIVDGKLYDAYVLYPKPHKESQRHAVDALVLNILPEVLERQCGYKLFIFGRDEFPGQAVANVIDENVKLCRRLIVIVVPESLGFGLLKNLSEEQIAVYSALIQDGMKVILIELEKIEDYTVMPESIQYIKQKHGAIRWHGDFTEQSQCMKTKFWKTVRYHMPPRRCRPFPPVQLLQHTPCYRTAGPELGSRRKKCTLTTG

[7] = biological target: T4, human IL-23 protein (ACROBiosystems, ILB-H52W5) (human, UniProt Q9NPF7 20-189; P29460 23-328); test: SPR (Biacore 8K), antibody captured by anti-human IgG Fc, IL-23 as analyte
T4 construct: Bought protein; construct not described; also called Human IL-23 antigen; human IL-23 antigen protein
T4 sequence (looked up) 1: T1 sequence (looked up) 1
T4 sequence (looked up) 2: T1 sequence (looked up) 2

[8] = biological target: T5, Human IL-36R protein (His + Avi Tag), Kactus IL1-HM4L2 (human, UniProt Q9HB29 20-335); test: SPR (Biacore 8K), antibody captured by anti-human IgG Fc, IL-36R as analyte
T5 construct: Bought protein; also called human IL-36R antigen protein; Human IL-36R antigen
T5 sequence: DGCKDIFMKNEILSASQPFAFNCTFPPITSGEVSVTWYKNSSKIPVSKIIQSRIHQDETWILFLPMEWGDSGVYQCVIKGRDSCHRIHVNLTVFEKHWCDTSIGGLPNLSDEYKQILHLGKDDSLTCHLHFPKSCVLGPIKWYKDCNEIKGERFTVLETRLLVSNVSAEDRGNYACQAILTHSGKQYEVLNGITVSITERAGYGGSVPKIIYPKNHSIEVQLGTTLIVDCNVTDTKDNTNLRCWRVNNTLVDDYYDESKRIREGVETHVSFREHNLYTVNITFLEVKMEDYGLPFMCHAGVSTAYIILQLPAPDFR

[9] = biological target: T3, IL-36R on human skin squamous cell line …; test: cell-based or functional assay; remark: listed apart in the source
[10] = biological target: T6, human IL-36R full-length protein stably expressed on CHO-K1 cells (human, UniProt Q9HB29 20-575); test: FACS, CHO-K1 cells overexpressing human IL-36R
T6 construct: FlpIn CHO-K1 line expressing the full-length protein; also called human IL-36R on the surface of CHO-K1 cells; CHO-K1 cells overexpressing human IL-36R
T6 sequence: T3 sequence (looked up)

[11] = biological target: T6, human IL-36R full-length protein stably …; test: FACS, CHO-K1 cells overexpressing human IL-36R; remark: listed apart in the source
[12] = biological target: T6, human IL-36R full-length protein stably …; test: FACS, CHO-K1 cells overexpressing human IL-36R; remark: listed apart in the source
[13] = biological target: T5, Human IL-36R protein (His + Avi Tag), …; test: SPR (Biacore 8K), antibody captured by anti-human IgG Fc, IL-36R as analyte; remark: listed apart in the source
[14] = biological target: T1, human IL-23 protein (Sino Biological, …); test: SPR (Biacore 8K), antibody captured on Protein A chip, IL-23 as analyte; remark: listed apart in the source
[15] = biological target: T4, human IL-23 protein (ACROBiosystems, …); test: ELISA, human IL-23 coated

B1: Hu29-24 (humanized anti-IL-23 antibody) (antibody, human IgG1, kappa, L234A L235A)
heavy: not shown
light: DIVLTQSPDSLAVSLGQRATINCRASESVDYYGISSMHWFQQKPGQPPKLLIYRASNLESGIPARFSGSGSRTDFTLTISSLQAEDVAVYYCQQANKDPYTFGGGTKVEIKRTVAAPSVFIFPPSDEQLKSGTASVVCLLNNFYPREAKVQWKVDNALQSGNSQESVTEQDSKDSTYSLSSTLTLSKADYEKHKVYACEVTHQGLSSPVTKSFNRGEC
- Activity in inhibiting proliferation of BaF3-IL-23R cells (IC50, nM) [1]: 0.178 nM
- IC50 for inhibiting IL-17 secretion [2]: 0.0289 nM
- EC50 [3]: 1.22 nM
- Kd [4]: 0.0149 nM
- IC50 [5]: 0.488 nM

B2: IL-36R-IL-23-03 (anti-IL-36R and anti-IL-23 bispecific antibody, VHH213_Hu07 on Hu29-19, Structure B) (bispecific antibody, human IgG1, kappa, L234A L235A)
heavy: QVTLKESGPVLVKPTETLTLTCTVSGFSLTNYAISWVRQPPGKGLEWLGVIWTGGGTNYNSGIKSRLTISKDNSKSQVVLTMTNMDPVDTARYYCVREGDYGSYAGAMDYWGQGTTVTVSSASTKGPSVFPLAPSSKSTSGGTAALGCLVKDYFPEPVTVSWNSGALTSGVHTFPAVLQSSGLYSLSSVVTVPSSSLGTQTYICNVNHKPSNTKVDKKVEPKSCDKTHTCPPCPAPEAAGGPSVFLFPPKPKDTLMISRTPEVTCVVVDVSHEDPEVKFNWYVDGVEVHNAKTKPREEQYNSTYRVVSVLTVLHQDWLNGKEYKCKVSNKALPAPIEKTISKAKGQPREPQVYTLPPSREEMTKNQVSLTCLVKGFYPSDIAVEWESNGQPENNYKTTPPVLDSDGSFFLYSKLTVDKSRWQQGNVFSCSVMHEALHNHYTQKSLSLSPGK
light: EVQLVESGGGLVQPGGSLRLSCAASGNTFSRYCMGWFRQAPGKELVGVAAIDSDGDTSYADSVEGRFTISRDNAKNTLYLQMNSLRAEDTAVYYCAADFTPSAPPRMGSGGYCFGDYWGQGTLVTVSSGGGGSGGGGSDIVLTQSPDSLAVSLGERATINCRASESVDYYGISSMHWFQQKPGQPPKLLIYRASNLESGIPARFSGSGSRTDFTLTISSLQAEDVAVYYCQQANKDPYTFGGGTKVEIKRTVAAPSVFIFPPSDEQLKSGTASVVCLLNNFYPREAKVQWKVDNALQSGNSQESVTEQDSKDSTYSLSSTLTLSKADYEKHKVYACEVTHQGLSSPVTKSFNRGEC
notes: VHH fused by a (G4S)2 linker to the N-terminus of the light chain; IgG1 L234A/L235A
- IL-36α-induced A431 IL-8 secretion IC50 [6]: 0.29 nM
- Kd [7]: 0.0517 nM
- koff [7]: 4.93e-05 s⁻¹
- kon [7]: 954000 M⁻¹ s⁻¹
- Kd [8]: 4.28 nM
- koff [8]: 0.000108 s⁻¹
- kon [8]: 25300 M⁻¹ s⁻¹

B3: H4H14706P2 (anti-human IL-36R antibody from Regeneron) (antibody, human IgG4 S228P, kappa, V domains shown)
VH: EVQLVESGGGLVQPGRSLRLSCTASGFTFDDYAIHWVRQSPGKGLEWVSVISWNSDVIGYADSVKGRFTISRDNAKNSLYLQMNSLRAEDTALYYCAKGYNWNFFDYWGQGTLVTVSS
VL: EIVLTQSPATLSLSPGERATLSCRASQSVSSYLAWYQQKPGQAPRLLIYNAANRATDIPARFSGSGSGTDFTLTISSLEPEDFAVYYCQQRSNWPLTFGGGTKVEIKR
notes: Control, self-expressed according to WO2020018503A2
- IL-8 secretion (A431), IL-36α, IC50 [9]: 0.64 nM
- IL-8 secretion (A431), IL-36β, IC50 [9]: 0.26 nM
- IL-8 secretion (A431), IL-36γ, IC50 [9]: 0.06 nM
- IL-36α-induced A431 IL-8 secretion IC50 [6]: 0.15 nM
- EC50 [10]: 0.37 nM
- Maximum MFI [10]: 10900 MFI
- EC50 [11]: 0.51 nM
- Maximum MFI [11]: 11200 MFI
- EC50 [12]: 0.64 nM
- Maximum MFI [12]: 10600 MFI
- Kd [13]: 6.4 nM
- koff [13]: 0.000364 s⁻¹
- kon [13]: 56800 M⁻¹ s⁻¹

B4: chimeric antibody Ch29 (antibody, human IgG1, kappa, L234A L235A, V domains shown)
VH: QVQLKESGPGLVAPSQSLSITCTVSGFSLTSYAISWVRQPPGKGLEWLGVIWTGGGTNYNSGIKSRLTISKDNSKSQVFLNMNSLQTEDTARYYCVREGDYGSYAGAMDYWGQGTSVTVSS
VL: DIVLTQSPASLAVSLGQRATISCRASESVDYYGISSMHWFQQKPGQPPKLLIYRASNLESGIPARFSGSGSRTDFTLTINRVETDDVATYYCQQANKDPYTFGGGTKLEIKR
- Activity in inhibiting proliferation of BaF3-IL-23R cells (IC50, nM) [1]: 0.175 nM
- EC50 [3]: 1.16 nM
- Kd [14]: 0.0207 nM
- koff [14]: 8.4e-05 s⁻¹
- kon [14]: 4.05e+06 M⁻¹ s⁻¹
- IC50 [5]: 0.386 nM

B5: IL-36R-IL-23-04 (anti-IL-36R and anti-IL-23 bispecific antibody, VHH162_Hu11 on Hu29-19, Structure B) (bispecific antibody, human IgG1, kappa, L234A L235A)
heavy: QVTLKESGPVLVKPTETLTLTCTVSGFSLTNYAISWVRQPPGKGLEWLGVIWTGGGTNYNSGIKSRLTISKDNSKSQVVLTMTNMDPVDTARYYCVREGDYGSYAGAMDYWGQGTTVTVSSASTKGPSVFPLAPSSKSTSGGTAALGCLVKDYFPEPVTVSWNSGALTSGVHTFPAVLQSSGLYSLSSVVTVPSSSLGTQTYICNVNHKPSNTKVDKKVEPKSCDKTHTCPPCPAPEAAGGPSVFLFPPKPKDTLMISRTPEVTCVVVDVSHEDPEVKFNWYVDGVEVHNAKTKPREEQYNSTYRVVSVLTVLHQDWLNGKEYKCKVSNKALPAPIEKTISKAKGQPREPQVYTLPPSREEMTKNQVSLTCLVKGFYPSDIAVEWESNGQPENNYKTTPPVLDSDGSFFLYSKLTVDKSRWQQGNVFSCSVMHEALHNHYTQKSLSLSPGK
light: EVQLVESGGGLVQPGGSLRLSCAASGYSYRTQCLGWYRQAPGKQREAVATISGGGTSTYYSDSVKGRFTISQDNSKTTVYLQMNSLRAEDTAVYYCAKGLSVLGSWCHGGSSYEYTYSGQGTLVTVSSGGGGSGGGGSDIVLTQSPDSLAVSLGERATINCRASESVDYYGISSMHWFQQKPGQPPKLLIYRASNLESGIPARFSGSGSRTDFTLTISSLQAEDVAVYYCQQANKDPYTFGGGTKVEIKRTVAAPSVFIFPPSDEQLKSGTASVVCLLNNFYPREAKVQWKVDNALQSGNSQESVTEQDSKDSTYSLSSTLTLSKADYEKHKVYACEVTHQGLSSPVTKSFNRGEC
notes: as for B2
- IL-36α-induced A431 IL-8 secretion IC50 [6]: 0.34 nM
- Kd [7]: 0.0702 nM
- koff [7]: 6.02e-05 s⁻¹
- kon [7]: 858000 M⁻¹ s⁻¹
- Kd [8]: 17.7 nM
- koff [8]: 0.000216 s⁻¹
- kon [8]: 12200 M⁻¹ s⁻¹

B6: BI655130 (anti-human IL-36R antibody from Boehringer Ingelheim) (antibody, human IgG1, kappa, L234A L235A, V domains shown)
VH: QVQLVQSGAEVKKPGASVKVSCKASGYSFTSSWIHWVKQAPGQGLEWMGEINPGNVRTNYNENFRNKVTMTVDTSISTAYMELSRLRSDDTAVYYCTVVFYGEPYFPYWGQGTLVTVSS
VL: QIVLTQSPGTLSLSPGERATMTCTASSSVSSSYFHWYQQKPGQAPRLWIYRTSRLASGVPDRFSGSGSGTDFTLTISRLEPEDAATYYCHQFHRSPLTFGAGTKLEIKR
notes: Control, self-expressed according to WO2013074569A1; also called B1655130
- IL-8 secretion (A431), IL-36α, IC50 [9]: 0.26 nM
- IL-8 secretion (A431), IL-36β, IC50 [9]: 0.1 nM
- IL-8 secretion (A431), IL-36γ, IC50 [9]: 0.04 nM
- IL-36α-induced A431 IL-8 secretion IC50 [6]: 0.06 nM
- EC50 [10]: 0.51 nM
- Maximum MFI [10]: 13400 MFI
- EC50 [11]: 0.51 nM
- Maximum MFI [11]: 14200 MFI
- EC50 [12]: 0.75 nM
- Maximum MFI [12]: 12900 MFI
- Kd [13]: 7.16 nM
- koff [13]: 9.54e-05 s⁻¹
- kon [13]: 13300 M⁻¹ s⁻¹

B7: Risankizumab (anti-IL-23 antibody control molecule) (antibody, human IgG1, kappa, L234A L235A, V domains shown)
VH: QVQLVQSGAEVKKPGSSVKVSCKASGYTFTDQTIHWMRQAPGQGLEWIGYIYPRDDSPKYNENFKGKVTITADKSTSTAYMELSSLRSEDTAVYYCAIPDRSGYAWFIYWGQGTLVTVSS
VL: DIQMTQSPSSLSASVGDRVTITCKASRDVAIAVAWYQQKPGKVPKLLIYWASTRHTGVPSRFSGSGSRTDFTLTISSLQPEDVADYFCHQYSSYPFTFGSGTKLEIKR
- EC50 [15]: 4.72 nM
- Kd [4]: 0.0651 nM
- koff [4]: 4.91e-05 s⁻¹
- kon [4]: 754000 M⁻¹ s⁻¹
- IC50 [5]: 0.61 nM
